Measurements: patent US20220110851A1 (SKINMED, published 2022)
No end group written: not given here.

B1: L1-13 (peptide)
peptide: RFRRGVRR
B2: Spep-2 (peptide)
peptide: WTWKGRKSLLR
B3: L3-27 (peptide)
peptide: RARKKRKSLLRRQV
B4: L3-37 (peptide)
peptide: SNVKRKRGRCKPYR
B5: Spep-4 (peptide)
peptide: WTWKGRDKLQM
B6: L3-28 (peptide)
peptide: PNGKVRKRIRRRYF
B7: L2-110 (peptide)
peptide: RYAKHRKRQTR
B8: Palmitoyl-Spep-2 (peptide)
peptide: WTWKGRKSLLR
modifications: also: palmitoyl conjugated, site not given here
B9: Spep-10 (peptide)
peptide: WTWKGNKQVKF

Biological target: acetylcholine receptor on AchR-overexpressed TE671 cells
Assay: cell-based or functional assay

Row | Binder | AchR inhibitory rate, TE671 cells, 400 µM nicotine, 20 µM peptide [%] | AchR inhibition, TE671 cells, 400 µM nicotine [%] | IC50 value for AchR (AchR inhibitory effect in TE671 cells) [nM] | inhibitory ability on nicotinic acetylcholine receptors, in multiples compared with Spep-2 [times] | AchR inhibitory effect, Fura-2 fluorescence in TE671 cells after 1 µM acetylcholine [%]
1 | B1 | ~100 |  |  |  | 
2 | B2 | ~10 | 100 | 750 |  | 
3 | B3 | ~100 | 100 |  | 8 | 
4 | B4 | ~100 |  |  | 32 | 
5 | B5 |  |  |  |  | 17
6 | B6 | ~100 | 100 |  | 16 | 
7 | B7 | ~100 | 100 |  | 8 | 
8 | B8 |  |  | 75 |  | 
9 | B9 |  |  |  |  | 47
